Assay results taken from patent US20240269276A1 (HARBOUR BIOMED SHANGHAI, published 2024).
Like-named read-outs stand apart in the source and are kept apart here.

Key:
[1] = biological target: T1, human PD-L1 on CHO-K1 cells overexpressing human PD-L1 (human, UniProt Q9NZQ7 19-290); assay: flow cytometry on CHO-K1 cells overexpressing human PD-L1 (CHO-K1/hPD-L1)
T1 construct: whole, on cells; also called CHO-K1/hPD-L1; CHO-K1-hPD-L1
Procedure: (§1) In the example, in order to study the in vitro binding activity of the PD-L1 antigen-binding protein to human/cynomolgus monkey PD-L1, cell-level binding experiments were performed using CHO-K1 cell strains overexpressing human PD-L1 (CHO-K1/hPD-L1, GenScript, M00543) or CHO-K1 cell strains overexpressing cynomolgus monkey PD-L1 (CHO-K1/cynoPD-L1, GenScript, M00573). Briefly, the PD-L1 cells were digested and resuspended in an F-12K complete medium, and the cell density was adjusted to 1×10⁶ cells/mL. The cells were seeded in a 96-well V-bottom plate (Corning, 3894) at 100 μL/well, followed by the addition of the test antigen-binding proteins serially diluted 5-fold with concentrations that were twice the final concentrations at 100 μL/well. The mixtures were well mixed. The highest final concentration of the antigen-binding proteins was 100 nM. A total of 8 concentrations were set. An isotype antibody hIgG1 iso was used as a control. The cells were incubated away from light at 4° C. for 1 h. Thereafter, the cells in each well were rinsed twice with 100 μL of pre-cooled PBS, and centrifuged at 500 g at 4° C. for 5 min, and then the supernatant was discarded. Then 100 μL of a fluorescent secondary antibody (goat anti-human IgG (H+L) secondary antibody, Alexa Fluor 488 conjugate, Invitrogen, A11013, diluted at the ratio of 1:1000) was added to each well. The plate was incubated away from light at 4° C. for 30 min. The cells in each well were then rinsed twice with 200 μL of pre-cooled PBS and centrifuged at 500 g at 4° C. for 5 min, and then the supernatant was discarded. Finally, a pre-cooled PBS was added at 200 μL/well to resuspend the cells. Fluorescence signal values were read using a BD FACS CANTOII. Fluorescence signal values were read using a flow cytometer BD FACS CANTOII or FACS ACEA, and the data were processed and analyzed using FlowJo v10 (FlowJo, LLC) software. The data were processed and analyzed by plotting using GraphPad Prism 8 software, and binding curves, EC50 values and other parameters were acquired through four-parameter nonlinear fitting.

[2] = biological target: T2, cynomolgus monkey PD-L1 on CHO-K1 cells overexpressing cynomolgus monkey PD-L1 (cynomolgus monkey, UniProt G7PSE7 19-290); assay: flow cytometry on CHO-K1 cells overexpressing cynomolgus monkey PD-L1 (CHO-K1/cynoPD-L1)
T2 construct: also called CHO-K1/cynoPD-L1; GenScript M00573
T2 sequence (G7PSE7 entry or part of it limits assumed): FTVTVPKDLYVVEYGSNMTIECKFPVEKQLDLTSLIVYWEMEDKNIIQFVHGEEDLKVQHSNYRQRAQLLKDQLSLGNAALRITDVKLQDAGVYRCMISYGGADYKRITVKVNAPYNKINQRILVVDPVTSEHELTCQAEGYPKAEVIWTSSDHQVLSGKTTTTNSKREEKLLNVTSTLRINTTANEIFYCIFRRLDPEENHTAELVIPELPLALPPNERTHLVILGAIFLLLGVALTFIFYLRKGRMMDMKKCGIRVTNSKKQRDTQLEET
Procedure: as §1

[3] = biological target: T3, human PD-L1 protein with histidine tag (ACROBiosystems #PD-1-H5258) (human, UniProt Q9NZQ7 19-238); assay: BLI (Octet Red96e); His-tagged human PD-L1 captured on HIS1K sensor, antibody at 60 nM; 1:1 fit
T3 construct: Bought protein; also called His PD-L1; human PD-L1 proteins; not shown: histidine tag
T3 sequence (Q9NZQ7 19-238 limits assumed): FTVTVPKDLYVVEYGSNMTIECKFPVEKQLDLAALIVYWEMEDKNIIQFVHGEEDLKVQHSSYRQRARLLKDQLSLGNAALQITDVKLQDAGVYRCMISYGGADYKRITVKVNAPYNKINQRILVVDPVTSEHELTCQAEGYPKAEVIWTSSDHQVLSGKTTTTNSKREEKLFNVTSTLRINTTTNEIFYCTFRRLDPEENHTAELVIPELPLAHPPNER
Procedure: In this example, affinity determination was performed on the affinity-matured mutants of PR002082 using an Octet Red96e instrument. […] The binding kinetics between the antigen and the antibody was analyzed by the biolayer interferometry (BLI) technique using an Octet molecular interaction analyzer (ForteBio, model: Octet Red96e).
When the affinity of the antigen for the antibody was determined, the rotation speed of the sensor was set at 1000 rpm/min. The 2 HIS1K sensors placed in a column were first equilibrated for 10 min in test buffer, then His PD-L1 was captured with the HIS1K sensor at a capture height of 0.9-1.1 nm, then the HIS1K sensor was equilibrated for 2 min in the test buffer, then the HIS1K sensor was bound to the antigen-binding protein (60 nM and 0 nM) for 3 min, and finally the mixture was dissociated for 15 min. The HIS1K sensor was immersed in a 10 mM glycine solution (pH 1.5) for regeneration to elute the proteins bound to the sensor.
When data analysis was performed using Octet Data Analysis software (Fortebio, version 11.0), the reference signals were subtracted by a single reference mode (reference well), the data were fitted by a “1:1 Local/full fitting” method, and the kinetic parameters of the binding of the antigen to the antibody were calculated to obtain Kₒₙ (1/Ms) values, Kdis (1/s) values and KD (M) values.

[4] = biological target: T1, human PD-L1 on CHO-K1 cells …; assay: flow cytometry on CHO-K1 cells overexpressing human PD-L1 (CHO-K1/hPD-L1) [continued) F]
Procedure: as §1

[5] = biological target: T2, cynomolgus monkey PD-L1 on CHO-K1 cells …; assay: flow cytometry on CHO-K1 cells overexpressing cynomolgus monkey PD-L1 (CHO-K1/cynoPD-L1); remark: listed apart in the source
Procedure: as §1

[6] = biological target: T1, human PD-L1 on CHO-K1 cells …; assay: flow cytometry on CHO-K1 cells overexpressing human PD-L1 (CHO-K1/hPD-L1) [continued) D]
Procedure: as §1

[7] = biological target: T1, human PD-L1 on CHO-K1 cells …; assay: flow cytometry on CHO-K1 cells overexpressing human PD-L1 (CHO-K1/hPD-L1) [continued) E]
Procedure: as §1

T1 sequence (Q9NZQ7 19-290): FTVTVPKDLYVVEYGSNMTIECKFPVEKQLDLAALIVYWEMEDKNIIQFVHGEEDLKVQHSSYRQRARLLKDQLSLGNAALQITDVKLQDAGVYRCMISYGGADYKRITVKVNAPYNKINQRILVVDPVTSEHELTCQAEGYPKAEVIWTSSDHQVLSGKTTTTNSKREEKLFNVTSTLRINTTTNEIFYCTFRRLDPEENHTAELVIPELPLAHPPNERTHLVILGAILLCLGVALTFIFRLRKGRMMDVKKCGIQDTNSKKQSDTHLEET

Row | Binder | EC50 [1] | EC50 [2] | Maximum MFI [2] | Kd [3] | koff [3] | kon [3] | EC50 [4] | Maximum MFI [4] | EC50 [5] | Maximum MFI [5] | Maximum MFI [1] | EC50 [6] | Maximum MFI [6] | EC50 [7] | Maximum MFI [7]
1 | PR001058 (antibody, human IgG1, V domains shown, Heavy-chain-only antibody (HCAb): human VH fused to human IgG1 Fc; no light chain; also called anti-PD-L1 HCAb antibody) VH: EVQLVESGGGVVQPGRSLRLSCAASGFTFSSYGMYWVRQAPGKGQEWVAIIWYDGTKKHYADSVKGRFTISRDNSKNTLYLEMNSLRVEDTAVYYCAKNRAIFGVVPDASDIRGQGTMVTVSS | 3.33 nM | 0.4 nM | 8480 MFI |  |  |  |  |  |  |  |  |  |  |  | 
2 | PR001061 (antibody, human IgG1, V domains shown, Heavy-chain-only antibody (HCAb): human VH fused to human IgG1 Fc; no light chain; also called anti-PD-L1 HCAb antibody) VH: EVQLLESGGGVVQPGRSLRLSCAASGFNFSSYGMYWVRQAPGKGQEWVAIIWYDGSRKHYADSVKGRFTISRDNSKNTLYLEMNSLRAEDTAMYYCAKNRAIFGVVPDASDIRGQGTMVTVSS | 2.31 nM | 0.4 nM | 8840 MFI |  |  |  |  |  |  |  | 3090 MFI |  |  |  | 
3 | PR001065 (antibody, human IgG1, V domains shown, Heavy-chain-only antibody (HCAb): human VH fused to human IgG1 Fc; no light chain; also called anti-PD-L1 HCAb antibody) VH: EVQLVESGGGVVQPGRSLRLSCAASGFNFSSYGMYWVRQAPGKGQEWVAIIWYDGTKKHYADSVKGRFTISRDNSKNTLYLEMNSLRVEDTAVYYCAKNRAIFGVVPDASDIRGQGTMVTVSS | 2.67 nM | 0.7 nM | 8780 MFI |  |  |  |  |  |  |  | 3000 MFI |  |  |  | 
4 | PR005875 (antibody, human IgG1, V domains shown, The HC entry is used) VH: QVQLVESGGGVVQPGMSLRLSCAASGFTFSSYGMYWVRQAPGKGQEWVASIRYTGTEKHYADSVKGRFTISRDNSKNTLYLEMNSLRVEDTAVYYCAKNRALFGVIPDASDIRGQGTMVTVSS |  |  |  | 1.04 nM | 0.000179 s⁻¹ | 172000 M⁻¹ s⁻¹ |  |  | 0.774 nM | 11500 MFI |  | 0.974 nM | 372000 MFI |  | 
5 | PR005263 (antibody, human IgG1, V domains shown, The HC entry is used) VH: QVQLVESGGGVVQPGMSLRLSCAASGFTFSSYGMYWVRQAPGKGQEWVASIRYTGTEKHYADSVKGRFTISRDNSKNTLYLEMNSLRVEDTAVYYCAKNRAIFGVVPDASDIRGQGTMVTVSS |  |  |  | 1.94 nM | 0.000227 s⁻¹ | 117000 M⁻¹ s⁻¹ |  |  | 1.19 nM | 11700 MFI |  |  |  | 0.914 nM | 363000 MFI
6 | PR005872 (antibody, human IgG1, V domains shown, The HC entry is used) VH: QVQLVESGGGVVQPGMSLRLSCAASGFTFSSYGMYWVRQAPGKGQEWVASIRYTGTEKHYADSVKGRFTISRDNSKNTLYLEMNSLRVEDTAVYYCAKNRAIFGVIPDDSDIRGQGTMVTVSS |  |  |  | 0.861 nM | 0.000187 s⁻¹ | 218000 M⁻¹ s⁻¹ |  |  | 0.733 nM | 11800 MFI |  | 0.787 nM | 385000 MFI |  | 

Other lines, results leading:

Row | EC50 [1] | EC50 [2] | Maximum MFI [2] | Kd [3] | koff [3] | kon [3] | EC50 [4] | Maximum MFI [4] | EC50 [5] | Maximum MFI [5] | Maximum MFI [1] | EC50 [6] | Maximum MFI [6] | EC50 [7] | Maximum MFI [7] | Binder
7 |  |  |  | 0.546 nM | 0.000164 s⁻¹ | 301000 M⁻¹ s⁻¹ | 0.764 nM | 396000 MFI | 0.736 nM | 11600 MFI |  |  |  |  |  | PR006246 (antibody, human IgG1, V domains shown, The HC entry is used) VH: QVQLVESGGGVVQPGMSLRLSCAASGFDFSSYGMYWVRQAPGKGQEWVASIRYTGTEKHYADSVKGRFTISRDNSKNTLYLEMNSLRVEDTAVYYCAKNRAIFGVIPDDSDIRGQGTMVTVSS
8 |  |  |  | 0.634 nM | 0.000115 s⁻¹ | 182000 M⁻¹ s⁻¹ | 0.606 nM | 404000 MFI | 0.717 nM | 11500 MFI |  |  |  |  |  | PR006248 (antibody, human IgG1, V domains shown, The HC entry is used) VH: QVQLVESGGGVVQPGMSLRLSCAASGFDFSSYGMYWVRQAPGKGQEWVASIRYTGTEKHYADSVKGRFTISRDNSKNTLYLEMNSLRVEDTAVYYCAKNRALFGVIPDDSDIRGQGTMVTVSS
9 |  |  |  | 0.671 nM | 0.000121 s⁻¹ | 180000 M⁻¹ s⁻¹ | 1.08 nM | 419000 MFI | 0.894 nM | 11700 MFI |  | 0.944 nM | 379000 MFI |  |  | PR005878 (antibody, human IgG1, V domains shown, The HC entry is used) VH: QVQLVESGGGVVQPGMSLRLSCAASGFTFSSYGMYWVRQAPGKGQEWVASIRYTGTEKHYADSVKGRFTISRDNSKNTLYLEMNSLRVEDTAVYYCAKNRALFGVIPDDSDIRGQGTMVTVSS
